Test results reported in patent publication US20080206230A1 (INSTITUT PASTEUR, published 2008).

Biological target: T1, rat NEP ecto-endopeptidase (renal tissue) (rat, UniProt P07861 2-750)
T1 sequence (looked up): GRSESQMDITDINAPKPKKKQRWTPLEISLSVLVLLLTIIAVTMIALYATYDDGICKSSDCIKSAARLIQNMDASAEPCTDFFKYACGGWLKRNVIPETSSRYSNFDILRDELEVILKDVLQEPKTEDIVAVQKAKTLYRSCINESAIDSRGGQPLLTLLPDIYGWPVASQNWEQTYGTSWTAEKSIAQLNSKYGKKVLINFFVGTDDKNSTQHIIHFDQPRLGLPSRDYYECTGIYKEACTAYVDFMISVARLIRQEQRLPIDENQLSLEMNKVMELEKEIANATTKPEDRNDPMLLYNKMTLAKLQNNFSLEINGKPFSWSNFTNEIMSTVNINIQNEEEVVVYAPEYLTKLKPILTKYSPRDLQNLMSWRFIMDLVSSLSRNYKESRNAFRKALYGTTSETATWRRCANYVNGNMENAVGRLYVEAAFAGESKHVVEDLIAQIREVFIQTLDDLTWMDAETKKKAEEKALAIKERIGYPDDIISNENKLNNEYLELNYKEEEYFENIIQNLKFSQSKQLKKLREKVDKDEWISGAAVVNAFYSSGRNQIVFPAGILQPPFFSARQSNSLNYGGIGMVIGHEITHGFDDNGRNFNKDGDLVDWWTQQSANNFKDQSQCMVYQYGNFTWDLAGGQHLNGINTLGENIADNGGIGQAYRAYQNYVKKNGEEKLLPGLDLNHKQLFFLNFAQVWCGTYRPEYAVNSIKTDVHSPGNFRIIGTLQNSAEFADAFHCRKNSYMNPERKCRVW
Test: cell-based or functional assay

inhibitory efficiency towards rat renal NEP relative to human cell surface NEP (LNCaP): ≥ 10 fold lower
B1: QRFSR peptide (peptide)
peptide: QRFSR
